Measurements reported in the supplement of paper PMC9170038.

Test system: MS2 coat protein
Experiment: apparent KD of MS2 coat protein; designed switch direction (-1 OFF switch, 1 ON switch): -1; higher = weaker reporter binding
Summary of the method: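 The reported apparent KD is a per-design median over clusters, from curve fits of normalised cluster fluorescence. Protein titrations used SNAP-549-labelled MS2 coat protein, doubled from 0.7 or 1.5 nM to 3 µM, in Tris-HCl pH 7.5 buffer with KCl, MgCl2, BSA, DTT, tRNA and Tween-20, with no input, 200 uM small-molecule ligand, or an oligonucleotide input. The RNA switches were transcribed on Illumina chips by stalled E. coli RNA polymerase.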

[1] = input ligand: microRNA oligo, concentration not stated
[2] = Eterna round: R95, input ligand: FMN 200 uM
[3] = Eterna round: R95, input ligand: microRNA oligo, concentration not stated
[4] = Eterna round: R95, input ligand: none

| Sequence | apparent KD of MS2 coat protein (input ligand: FMN 200 uM) [µM] | apparent KD of MS2 coat protein (input ligand: none) [µM] | apparent KD of MS2 coat protein [1] [µM] | apparent KD of MS2 coat protein [2] [µM] | apparent KD of MS2 coat protein [3] [µM] | apparent KD of MS2 coat protein [4] [µM] |
| --- | --- | --- | --- | --- | --- | --- |
| CCUUCAGUAGUUAGGAUAUUUGGCGUCGAGGCGCAAGAGAAGGGACAUGAGGAUCACCCAUGUGAGUAUGGUAG [Eternabot (L1) Solution 35] (Eterna round: R97, puzzle: Brourd's mod of Exclusion 4) | 0.0619 | 0.0631 |  |  |  |  |
| GUGUUACAUGAGGAUCACCCAUGUGAGGAUAUCAUGCUUCGUAGUAAACUACGAAGUGUGAGAAGGCAUAUGAC [Omei Ex1 E4] (Eterna round: R97, puzzle: Exclusion 1) | 0.0507 | 0.0565 |  |  |  |  |
| UUUUUAAAUGAAGGAUAUACUUAACAUGAGGAUCACCCAUGUGGUGUUGUGAGUGAGUGAGUUUAGUAGAAGGUCAAGUAUUUU [JMF's solution 44] (Eterna round: R96, puzzle: Exclusion NG 2) | 0.814 | 0.392 | 0.339 |  |  |  |
| GUAUACAAGCAAAGAUCCCACAUGAGGAUCACCCAUGUGCUCGUCUUAUAAGGUACUGUGACGAAAGUCACGGUACC [Mat - Sensor, turn-off var - Eli Mod - D103] (Eterna round: R97, puzzle: Sensor, turn-off variant 1) | 0.0429 | 0.043 |  |  |  |  |
| AACCAGCGAGGAUAUUGUCGGUACAACAUGAGGAUCACCCAUGUCACGUGAUCUUCCCAACAAGAAGGUGCACUAC [Axeedesza] (Eterna round: R97, puzzle: Exclusion 5) | 0.324 | 0.272 |  |  |  |  |
| CUGGUCCGAGGAUAUAUUAUGUGAAACAUGAGGAUCACCCAUGUAAUAUGAUGGAUAUAAAUAGAAGGCGGACUAG [Mat - Exclusion 5 - JL mod - D31] (puzzle: Exclusion 5) |  |  |  | 0.0224 | 0.0199 | 0.0311 |
| GUAAAGAGAGGAUAUACAUGAGGAUCACCCAUGUACGACCAGCAGAAAUGGUCCUCGAGUAGAAGGCUCGGGUA [Araris] (Eterna round: R97, puzzle: Exclusion 3) | 0.239 | 0.0517 |  |  |  |  |
| CUUUUGUGAGGAUAUUAGUAGUAAAUAUAUAAAAUUACUACUGAGAAGGCACAUGAGGAUCACCCAUGUUCCUC [salish99_ex4_r3_055] (puzzle: Exclusion 4) |  |  |  |  | 0.0362 |  |
| CCAAAUCAUGUAGGAUAUGCGUGGCGAAGCUAUGCAGAAGGACAUGAGGAUCACCCAUGUGCUUCCGUCUGCGUACAGACGGUA [JL ENG1 1.15] (Eterna round: R96, puzzle: Exclusion NG 1) | 0.123 | 0.118 | 0.103 |  |  |  |
| AGUAACCGUCACGAAAGUGAUGGUUACGCAAGCAAAUGUACAUGAGGAUCACCCAUGUCCUCAUUUGCUCGUCUUAU [Sensor 3 - 43] (puzzle: Sensor v3, turn-off variant 2) |  |  |  | 0.0196 | 0.362 | 0.0177 |
| GACUUGUCAGGAUAUCUUACAUAAACAUCGUAGUUACAAUUGGAGAAGGGACAUGAGGAUCACCCAUGUUUGCC [tap-tap-tappy30] (Eterna round: R97, puzzle: Exclusion 4) | 0.0168 | 0.0175 |  |  |  |  |
| AAUUCACAAGCGAGAUCCCACAUGAGGAUCACCCAUGUGCUCGUCUUAUAAGGUACUGUGACGAUAGUCACGGUACC [Mat - Sensor, turn-off var - Eli Mod - D87] (Eterna round: R97, puzzle: Sensor, turn-off variant 1) | 0.0164 | 0.0161 |  |  |  |  |
| AACACAUGAGGAUAUACAUGAGGAUCACCCAUGUUGUCACUACACCCGGGUGCCUGGUGUAGAAGGCAUGAAGA [Eternabot (Original) Solution 30] (Eterna round: R97, puzzle: Exclusion 3) | 0.0712 | 0.0341 |  |  |  |  |
| UAAUUGUGAGGAUAUCAGGUGUGCUAGCGUACUGGUACAUCUGAGAAGGCACAUGAGGAUCACCCAUGUUCCUU [Mat - Exclusion 4 - Mod of JL - D47] (puzzle: Exclusion 4) |  |  |  |  | 0.0136 |  |
| CUAGCGUAUGUAGGAUAUCGGACUGUUUCAGUCUGAGAAGGACAUGAGGAUCACCCAUGUAUUGCUACGUGAGUAGCUCGCUAG [JL ENG1 3.93] (Eterna round: R96, puzzle: Exclusion NG 1) | 0.0301 | 0.0196 | 0.0168 |  |  |  |
| CCCGGGUUAGGAUAUGGGCCCGGGCCCGAAAGGGCCCGGGCCCAGAAGGGACAUGAGGAUCACCCAUGUCCGGG [-53.1, -49.1 kcal, 20% A] (Eterna round: R97, puzzle: Exclusion 4) | 0.0221 | 0.0199 |  |  |  |  |
| AUGGUACAUGAGGAUCACCCAUGUUAGGAUAUCGCGUGAUCUAAAACUAAGAGACACACGAGAAGGGACGACAU (puzzle: Exclusion 1) |  |  |  |  | 0.128 |  |
